# Data: IntAct's records for PubMed 23572552
# B1: TBC1 domain family member 22A (Homo sapiens), Q8WUA7 (parent)
# chain: MASDGARKQFWKRSNSKLPGSIQHVYGAQHPPFDPLLHGTLLRSTAKMPTTPVKAKRVSTFQEFESNTSDAWDAGEDDDELLAMAAESLNSEVVMETANRVLRNHSQRQGRPTLQEGPGLQQKPRPEAEPPSPPSGDLRLVKSVSESHTSCPAESASDAAPLQRSQSLPHSATVTLGGTSDPSTLSSSALSEREASRLDKFKQLLAGPNTDLEELRRLSWSGIPKPVRPMTWKLLSGYLPANVDRRPATLQRKQKEYFAFIEHYYDSRNDEVHQDTYRQIHIDIPRMSPEALILQPKVTEIFERILFIWAIRHPASGYVQGINDLVTPFFVVFICEYIEAEEVDTVDVSGVPAEVLCNIEADTYWCMSKLLDGIQDNYTFAQPGIQMKVKMLEELVSRIDEQVHRHLDQHEVRYLQFAFRWMNNLLMREVPLRCTIRLWDTYQSEPDGFSHFHLYVCAAFLVRWRKEILEEKDFQELLLFLQNLPTAHWDDEDISLLLAEAYRLKFAFADAPNHYKK
# Variants of: B1
# Conditions: with gcp60_human ACBD3, Q9H3P7
row,Variant,effect of a mutation on the interaction
1,MASDGARKQFWKRSNSKLPGSIQHVYGAQHPPFDPLLHGTLLRSTAKMPTTPVKAKRVSTFQEFESNTSDAWDAGEDDDELLAMAAESLNSEVVMETANRVLRNHSQRQGRPTLQEGPGLQQKPRPEAEPPSPPSGDLRLVKSVSESHTSCPAESASDAAPLQRSQELPHSATVTLGGTSDPSTLSSSALSEREASRLDKFKQLLAGPNTDLEELRRLSWSGIPKPVRPMTWKLLSGYLPANVDRRPATLQRKQKEYFAFIEHYYDSRNDEVHQDTYRQIHIDIPRMSPEALILQPKVTEIFERILFIWAIRHPASGYVQGINDLVTPFFVVFICEYIEAEEVDTVDVSGVPAEVLCNIEADTYWCMSKLLDGIQDNYTFAQPGIQMKVKMLEELVSRIDEQVHRHLDQHEVRYLQFAFRWMNNLLMREVPLRCTIRLWDTYQSEPDGFSHFHLYVCAAFLVRWRKEILEEKDFQELLLFLQNLPTAHWDDEDISLLLAEAYRLKFAFADAPNHYKK [S167E],with no effect
2,MASDGARKQFWKRSNSKLPGSIQHVYGAQHPPFDPLLHGTLLRSTAKMPTTPVKAKRVSTFQEFESNTSDAWDAGEDDDELLAMAAESLNSEVVMETANRVLRNHSQRQGRPTLQEGPGLQQKPRPEAEPPSPPSGDLRLVKSVSESHEECPAESASDAAPLQRSQSLPHSATVTLGGTSDPSTLSSSALSEREASRLDKFKQLLAGPNTDLEELRRLSWSGIPKPVRPMTWKLLSGYLPANVDRRPATLQRKQKEYFAFIEHYYDSRNDEVHQDTYRQIHIDIPRMSPEALILQPKVTEIFERILFIWAIRHPASGYVQGINDLVTPFFVVFICEYIEAEEVDTVDVSGVPAEVLCNIEADTYWCMSKLLDGIQDNYTFAQPGIQMKVKMLEELVSRIDEQVHRHLDQHEVRYLQFAFRWMNNLLMREVPLRCTIRLWDTYQSEPDGFSHFHLYVCAAFLVRWRKEILEEKDFQELLLFLQNLPTAHWDDEDISLLLAEAYRLKFAFADAPNHYKK [T149E;S150E],decreasing interaction strength
3,MASDGARKQFWKRSNSKLPGSIQHVYGAQHPPFDPLLHGTLLRSTAKMPTTPVKAKRVSTFQEFESNTSDAWDAGEDDDELLAMAAESLNSEVVMETANRVLRNHSQRQGRPTLQEGPGLQQKPRPEAEPPAPPSGDLRLVKSVSESHTSCPAESASDAAPLQRSQSLPHSATVTLGGTSDPSTLSSSALSEREASRLDKFKQLLAGPNTDLEELRRLSWSGIPKPVRPMTWKLLSGYLPANVDRRPATLQRKQKEYFAFIEHYYDSRNDEVHQDTYRQIHIDIPRMSPEALILQPKVTEIFERILFIWAIRHPASGYVQGINDLVTPFFVVFICEYIEAEEVDTVDVSGVPAEVLCNIEADTYWCMSKLLDGIQDNYTFAQPGIQMKVKMLEELVSRIDEQVHRHLDQHEVRYLQFAFRWMNNLLMREVPLRCTIRLWDTYQSEPDGFSHFHLYVCAAFLVRWRKEILEEKDFQELLLFLQNLPTAHWDDEDISLLLAEAYRLKFAFADAPNHYKK [S132A],decreasing interaction strength
4,MASDGARKQFWKRSNSKLPGSIQHVYGAQHPPFDPLLHGTLLRSTAKMPTTPVKAKRVSTFQEFESNTSDAWDAGEDDDELLAMAAESLNSEVVMETANRVLRNHSQRQGRPTLQEGPGLQQKPRPEAEPPSPPSGDLRLVKSVSESHTSCPAESASDAAPLQREQELPHSATVTLGGTSDPSTLSSSALSEREASRLDKFKQLLAGPNTDLEELRRLSWSGIPKPVRPMTWKLLSGYLPANVDRRPATLQRKQKEYFAFIEHYYDSRNDEVHQDTYRQIHIDIPRMSPEALILQPKVTEIFERILFIWAIRHPASGYVQGINDLVTPFFVVFICEYIEAEEVDTVDVSGVPAEVLCNIEADTYWCMSKLLDGIQDNYTFAQPGIQMKVKMLEELVSRIDEQVHRHLDQHEVRYLQFAFRWMNNLLMREVPLRCTIRLWDTYQSEPDGFSHFHLYVCAAFLVRWRKEILEEKDFQELLLFLQNLPTAHWDDEDISLLLAEAYRLKFAFADAPNHYKK [S165E;S167E],with no effect
5,MASDGARKQFWKRSNSKLPGSIQHVYGAQHPPFDPLLHGTLLRSTAKMPTTPVKAKRVSTFQEFESNTSDAWDAGEDDDELLAMAAESLNSEVVMETANRVLRNHSQRQGRPTLQEGPGLQQKPRPEAEPPSPPSGDLRLVKSVSESHTSCPAESASDAAPLQRAQSLPHSATVTLGGTSDPSTLSSSALSEREASRLDKFKQLLAGPNTDLEELRRLSWSGIPKPVRPMTWKLLSGYLPANVDRRPATLQRKQKEYFAFIEHYYDSRNDEVHQDTYRQIHIDIPRMSPEALILQPKVTEIFERILFIWAIRHPASGYVQGINDLVTPFFVVFICEYIEAEEVDTVDVSGVPAEVLCNIEADTYWCMSKLLDGIQDNYTFAQPGIQMKVKMLEELVSRIDEQVHRHLDQHEVRYLQFAFRWMNNLLMREVPLRCTIRLWDTYQSEPDGFSHFHLYVCAAFLVRWRKEILEEKDFQELLLFLQNLPTAHWDDEDISLLLAEAYRLKFAFADAPNHYKK [S165A],with no effect
6,MASDGARKQFWKRSNSKLPGSIQHVYGAQHPPFDPLLHGTLLRSTAKMPTTPVKAKRVSTFQEFESNTSDAWDAGEDDDELLAMAAESLNSEVVMETANRVLRNHSAAAGRPTLQEGPGLQQKPRPEAEPPSPPSGDLRLVKSVSESHTSCPAESASDAAPLQRSQSLPHSATVTLGGTSDPSTLSSSALSEREASRLDKFKQLLAGPNTDLEELRRLSWSGIPKPVRPMTWKLLSGYLPANVDRRPATLQRKQKEYFAFIEHYYDSRNDEVHQDTYRQIHIDIPRMSPEALILQPKVTEIFERILFIWAIRHPASGYVQGINDLVTPFFVVFICEYIEAEEVDTVDVSGVPAEVLCNIEADTYWCMSKLLDGIQDNYTFAQPGIQMKVKMLEELVSRIDEQVHRHLDQHEVRYLQFAFRWMNNLLMREVPLRCTIRLWDTYQSEPDGFSHFHLYVCAAFLVRWRKEILEEKDFQELLLFLQNLPTAHWDDEDISLLLAEAYRLKFAFADAPNHYKK [Q107A;R108A;Q109A],with no effect
